Measurements: patent US12246067 (BIONTECH US, dated 2025)

What was measured:
HLA-A03.01 = target: T1, HLA-A03.01 (human); test: peptide-HLA class I complex stability, method not described
T1 construct: The assay format and the HLA construct are not described

HLA-A11.01 = target: T2, HLA-A11.01 (human); test: as above
T2 construct: The assay format and the HLA construct are not described

HLA-A02:01 [1] = target: T3, HLA-A02:01 (human); test: measured peptide-HLA complex stability; method not detailed
T3 construct: only the allele is given; also called HLA-A02:01 allele protein

HLA-A02:01 [2] = target: T3, HLA-A02:01; test: measured peptide-HLA affinity; method not detailed

**Q.** For VVVGADGVGK [KRAS, G12D peptide VVVGADGVGK], which Measured stability (HLA-A03.01) is on record?
**A.** Its Measured stability is 2.3 h.

**Q.** And the Measured stability (HLA-A11.01)?
**A.** The Measured stability was 13 h.

**Q.** For VVVGAVGVGK [KRAS, G12V peptide VVVGAVGVGK], which Measured stability (HLA-A03.01) is on record?
**A.** Its Measured stability is 6.7 h.

**Q.** And the Measured stability (HLA-A11.01)?
**A.** Its Measured stability is 24.3 h.

**Q.** What does the source list for VVGACGVGK [KRAS, G12C peptide VVGACGVGK]?
**A.** Measured stability (HLA-A03.01): 5 h; Measured stability (HLA-A11.01): 10 h

**Q.** Which Measured stability (HLA-A11.01) does the source give for VVGADGVGK [KRAS, G12D peptide VVGADGVGK] here?
**A.** Its Measured stability is 3.4 h.

**Q.** For FLVVVGACGV [KRAS G12C affinity-enhanced peptide FLVVVGACGV], which “Measured stability” value (HLA-A02:01 [1]) is on record?
**A.** Its value is 7.4 h.

**Q.** And the “Measured Affinity” value (HLA-A02:01 [2])?
**A.** The value was 4.2 nM.

**Q.** FMVVVGACGL [KRAS G12C affinity-enhanced peptide FMVVVGACGL] was tested. Which “Measured stability” value (HLA-A02:01 [1]) did it give?
**A.** Its value is 0.9 h.

**Q.** And the “Measured Affinity” value (HLA-A02:01 [2])?
**A.** The value was 85.3 nM.

**Q.** Which results are given for FLVVVGACGL [KRAS G12C affinity-enhanced peptide FLVVVGACGL]?
**A.** Measured stability (HLA-A02:01 [1]): 1.4 h; Measured Affinity (HLA-A02:01 [2]): 69.4 nM

**Q.** Which “Measured stability” value (HLA-A02:01 [1]) does the source give for FLVVVGACGI [KRAS G12C affinity-enhanced peptide FLVVVGACGI] here?
**A.** Its value is 1.4 h.

**Q.** What about the “Measured Affinity” value (HLA-A02:01 [2]) of the same binder?
**A.** Its value is 27.8 nM.

**Q.** What does the source list for FMVVVGACGV [KRAS G12C affinity-enhanced peptide FMVVVGACGV]?
**A.** Measured stability (HLA-A02:01 [1]): 5.4 h; Measured Affinity (HLA-A02:01 [2]): 1.1 nM

**Q.** With YMVVVGACGV [KRAS G12C affinity-enhanced peptide YMVVVGACGV] as the binder, how does the “Measured stability” value (HLA-A02:01 [1]) read?
**A.** Its value is 6.4 h.

**Q.** And the “Measured Affinity” value (HLA-A02:01 [2])?
**A.** The value was 7 nM.

**Q.** KMVVVGACGV [KRAS G12C affinity-enhanced peptide KMVVVGACGV] was tested. Which “Measured stability” value (HLA-A02:01 [1]) did it give?
**A.** Its value is 3.8 h.

**Q.** What about the “Measured Affinity” value (HLA-A02:01 [2]) of the same binder?
**A.** The value was 11.9 nM.

**Q.** Which results are given for YLVVVGACGV [KRAS G12C affinity-enhanced peptide YLVVVGACGV]?
**A.** Measured stability (HLA-A02:01 [1]): 9.3 h; Measured Affinity (HLA-A02:01 [2]): 3.9 nM

**Q.** Which “Measured stability” value (HLA-A02:01 [1]) does the source give for FMVVVGACGI [KRAS G12C affinity-enhanced peptide FMVVVGACGI] here?
**A.** Its value is 1 h.

**Q.** And the “Measured Affinity” value (HLA-A02:01 [2])?
**A.** The value was 17 nM.

**Q.** For MMVVVGACGV [KRAS G12C affinity-enhanced peptide MMVVVGACGV], which “Measured stability” value (HLA-A02:01 [1]) is on record?
**A.** The value was 2.1 h.

**Q.** And the “Measured Affinity” value (HLA-A02:01 [2])?
**A.** The value was 18.9 nM.

**Q.** How did the “Measured stability” value (HLA-A02:01 [1]) turn out when MLVVVGACGV [KRAS G12C affinity-enhanced peptide MLVVVGACGV] was run?
**A.** Its value is 1.7 h.

**Q.** And the “Measured Affinity” value (HLA-A02:01 [2])?
**A.** Its value is 18.2 nM.
